Assay results from US20040234530.

What was measured:
[1] = target: T1, α1-antichymotrypsin (Sigma, St. Louis, MO), P01011
T1 chain: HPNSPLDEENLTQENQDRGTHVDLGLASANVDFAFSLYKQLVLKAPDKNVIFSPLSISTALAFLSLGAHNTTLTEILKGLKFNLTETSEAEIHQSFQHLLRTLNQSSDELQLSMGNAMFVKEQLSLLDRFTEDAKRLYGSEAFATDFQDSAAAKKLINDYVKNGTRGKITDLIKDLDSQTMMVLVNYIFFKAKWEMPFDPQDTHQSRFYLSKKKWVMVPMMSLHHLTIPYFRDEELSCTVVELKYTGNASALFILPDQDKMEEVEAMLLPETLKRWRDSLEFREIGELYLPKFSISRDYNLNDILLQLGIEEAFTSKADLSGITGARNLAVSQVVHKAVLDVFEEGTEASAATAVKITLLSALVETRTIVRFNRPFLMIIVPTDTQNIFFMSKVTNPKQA

[2] = target: antithrombin (Enzyme Research Labs, South Bend, IN), P01008
[3] = target: α1-antitrypsin (Sigma, St. Louis, MO), P01009
[4] = target: T2, C1-esterase inhibitor (human plasma protease C1 inhibitor), purified or in human serum, P05155
T2 chain: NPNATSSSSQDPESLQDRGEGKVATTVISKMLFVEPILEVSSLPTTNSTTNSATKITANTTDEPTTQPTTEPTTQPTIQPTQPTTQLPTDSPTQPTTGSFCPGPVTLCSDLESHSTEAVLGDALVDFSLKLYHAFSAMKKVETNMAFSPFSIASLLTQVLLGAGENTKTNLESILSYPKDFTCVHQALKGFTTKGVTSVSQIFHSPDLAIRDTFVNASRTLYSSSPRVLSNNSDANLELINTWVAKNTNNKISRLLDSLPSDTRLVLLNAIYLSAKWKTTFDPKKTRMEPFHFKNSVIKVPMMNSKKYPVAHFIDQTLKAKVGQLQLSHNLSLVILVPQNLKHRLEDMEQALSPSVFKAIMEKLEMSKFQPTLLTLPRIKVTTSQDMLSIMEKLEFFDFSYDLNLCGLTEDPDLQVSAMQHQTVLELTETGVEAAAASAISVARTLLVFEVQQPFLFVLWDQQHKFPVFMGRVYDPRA

[5] = target: BODIPY FL-conjugated casein (EnzChek Protease Assay Kit, Molecular Probes)
[6] = target: Elastin (Sigma, St. Louis, MO)
[7] = target: T3, α2-macroglobulin (Calbiochem, San Diego, CA), P01023
T3 chain: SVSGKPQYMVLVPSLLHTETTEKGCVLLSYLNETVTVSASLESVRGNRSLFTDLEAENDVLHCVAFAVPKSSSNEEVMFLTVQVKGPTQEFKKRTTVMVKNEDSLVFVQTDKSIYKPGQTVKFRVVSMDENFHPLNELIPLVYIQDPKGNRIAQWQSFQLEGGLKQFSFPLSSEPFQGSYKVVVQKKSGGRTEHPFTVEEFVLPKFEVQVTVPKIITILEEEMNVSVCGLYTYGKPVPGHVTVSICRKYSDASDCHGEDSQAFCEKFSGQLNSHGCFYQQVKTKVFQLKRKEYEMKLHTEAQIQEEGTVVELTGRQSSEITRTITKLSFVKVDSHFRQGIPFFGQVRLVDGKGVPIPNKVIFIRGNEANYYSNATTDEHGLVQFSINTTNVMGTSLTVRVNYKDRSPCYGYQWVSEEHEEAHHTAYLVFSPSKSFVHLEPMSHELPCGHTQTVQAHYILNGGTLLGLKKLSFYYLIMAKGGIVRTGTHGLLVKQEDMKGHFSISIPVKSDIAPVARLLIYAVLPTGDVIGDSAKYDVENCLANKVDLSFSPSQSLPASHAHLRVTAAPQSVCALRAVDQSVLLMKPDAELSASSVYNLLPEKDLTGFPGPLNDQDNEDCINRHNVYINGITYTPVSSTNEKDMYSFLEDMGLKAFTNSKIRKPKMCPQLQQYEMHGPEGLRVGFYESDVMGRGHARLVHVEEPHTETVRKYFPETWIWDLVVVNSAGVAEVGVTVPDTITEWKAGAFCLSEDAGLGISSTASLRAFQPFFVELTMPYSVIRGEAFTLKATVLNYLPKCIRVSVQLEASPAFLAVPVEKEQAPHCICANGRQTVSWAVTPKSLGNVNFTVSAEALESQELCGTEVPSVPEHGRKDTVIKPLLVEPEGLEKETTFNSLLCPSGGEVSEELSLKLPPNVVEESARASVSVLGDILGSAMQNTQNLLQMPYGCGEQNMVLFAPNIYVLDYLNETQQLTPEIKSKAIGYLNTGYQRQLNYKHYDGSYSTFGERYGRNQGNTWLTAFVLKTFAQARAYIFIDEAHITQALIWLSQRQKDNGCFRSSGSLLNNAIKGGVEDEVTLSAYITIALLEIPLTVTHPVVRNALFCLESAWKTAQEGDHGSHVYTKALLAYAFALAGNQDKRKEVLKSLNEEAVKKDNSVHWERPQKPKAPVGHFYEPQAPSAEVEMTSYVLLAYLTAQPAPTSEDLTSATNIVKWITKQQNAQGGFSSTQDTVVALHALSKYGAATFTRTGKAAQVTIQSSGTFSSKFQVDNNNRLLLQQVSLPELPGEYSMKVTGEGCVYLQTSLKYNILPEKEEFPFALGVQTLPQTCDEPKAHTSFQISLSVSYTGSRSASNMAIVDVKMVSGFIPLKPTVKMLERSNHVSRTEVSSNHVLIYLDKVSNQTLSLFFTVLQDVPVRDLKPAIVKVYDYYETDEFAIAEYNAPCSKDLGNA

[8] = target: T4, α2-antiplasmin (Calbiochem, San Diego, CA), P08697
T4 chain: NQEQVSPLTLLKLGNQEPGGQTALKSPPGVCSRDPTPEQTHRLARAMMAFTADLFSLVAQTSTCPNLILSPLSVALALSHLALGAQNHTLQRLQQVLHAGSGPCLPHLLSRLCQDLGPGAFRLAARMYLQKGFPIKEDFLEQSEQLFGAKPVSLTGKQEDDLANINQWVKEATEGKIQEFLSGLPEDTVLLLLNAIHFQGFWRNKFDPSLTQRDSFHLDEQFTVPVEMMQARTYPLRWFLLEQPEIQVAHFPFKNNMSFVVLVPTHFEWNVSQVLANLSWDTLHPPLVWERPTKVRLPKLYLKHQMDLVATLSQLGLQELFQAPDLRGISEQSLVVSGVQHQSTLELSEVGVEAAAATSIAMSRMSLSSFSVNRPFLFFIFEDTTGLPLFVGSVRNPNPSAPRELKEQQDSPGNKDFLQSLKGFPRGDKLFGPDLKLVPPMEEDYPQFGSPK

[9] = target: fibronectin (Calbiochem, San Diego, CA), P02751
[10] = target: Gelatin (BioRad, Hercules, CA)
[11] = target: collagen IV (Rockland, Gilbertsville, PA)
[12] = target: serum albumin (New England Biolabs, Beverly, MA)
[13] = target: von Willebrand factor (gift from Dr. D. Mosher, UW-Madison), P04275
[14] = target: T5, C-serp(98), a recombinant C1-INH molecule lacking the N-terminal amino acids 1-97 and containing only the serpin domain, P05155
T5 chain: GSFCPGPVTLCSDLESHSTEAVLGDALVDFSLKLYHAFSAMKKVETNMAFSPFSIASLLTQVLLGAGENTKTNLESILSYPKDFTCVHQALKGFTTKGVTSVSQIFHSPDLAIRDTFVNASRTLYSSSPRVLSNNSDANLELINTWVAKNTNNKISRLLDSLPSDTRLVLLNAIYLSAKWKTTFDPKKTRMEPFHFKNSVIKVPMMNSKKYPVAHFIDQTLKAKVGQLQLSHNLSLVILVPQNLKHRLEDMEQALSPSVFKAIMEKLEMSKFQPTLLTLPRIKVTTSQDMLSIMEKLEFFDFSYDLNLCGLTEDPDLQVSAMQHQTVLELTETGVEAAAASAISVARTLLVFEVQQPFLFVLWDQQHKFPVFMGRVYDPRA

[15] = target: T6, recombinant, full-length human C1-INH (hC1-INH) expressed in COS-7 cells, 35S-methionine-labeled, P05155
T6 chain: T2 chain

Chain of fibronectin (Calbiochem, San Diego, CA), P02751 (P02751 32-2477): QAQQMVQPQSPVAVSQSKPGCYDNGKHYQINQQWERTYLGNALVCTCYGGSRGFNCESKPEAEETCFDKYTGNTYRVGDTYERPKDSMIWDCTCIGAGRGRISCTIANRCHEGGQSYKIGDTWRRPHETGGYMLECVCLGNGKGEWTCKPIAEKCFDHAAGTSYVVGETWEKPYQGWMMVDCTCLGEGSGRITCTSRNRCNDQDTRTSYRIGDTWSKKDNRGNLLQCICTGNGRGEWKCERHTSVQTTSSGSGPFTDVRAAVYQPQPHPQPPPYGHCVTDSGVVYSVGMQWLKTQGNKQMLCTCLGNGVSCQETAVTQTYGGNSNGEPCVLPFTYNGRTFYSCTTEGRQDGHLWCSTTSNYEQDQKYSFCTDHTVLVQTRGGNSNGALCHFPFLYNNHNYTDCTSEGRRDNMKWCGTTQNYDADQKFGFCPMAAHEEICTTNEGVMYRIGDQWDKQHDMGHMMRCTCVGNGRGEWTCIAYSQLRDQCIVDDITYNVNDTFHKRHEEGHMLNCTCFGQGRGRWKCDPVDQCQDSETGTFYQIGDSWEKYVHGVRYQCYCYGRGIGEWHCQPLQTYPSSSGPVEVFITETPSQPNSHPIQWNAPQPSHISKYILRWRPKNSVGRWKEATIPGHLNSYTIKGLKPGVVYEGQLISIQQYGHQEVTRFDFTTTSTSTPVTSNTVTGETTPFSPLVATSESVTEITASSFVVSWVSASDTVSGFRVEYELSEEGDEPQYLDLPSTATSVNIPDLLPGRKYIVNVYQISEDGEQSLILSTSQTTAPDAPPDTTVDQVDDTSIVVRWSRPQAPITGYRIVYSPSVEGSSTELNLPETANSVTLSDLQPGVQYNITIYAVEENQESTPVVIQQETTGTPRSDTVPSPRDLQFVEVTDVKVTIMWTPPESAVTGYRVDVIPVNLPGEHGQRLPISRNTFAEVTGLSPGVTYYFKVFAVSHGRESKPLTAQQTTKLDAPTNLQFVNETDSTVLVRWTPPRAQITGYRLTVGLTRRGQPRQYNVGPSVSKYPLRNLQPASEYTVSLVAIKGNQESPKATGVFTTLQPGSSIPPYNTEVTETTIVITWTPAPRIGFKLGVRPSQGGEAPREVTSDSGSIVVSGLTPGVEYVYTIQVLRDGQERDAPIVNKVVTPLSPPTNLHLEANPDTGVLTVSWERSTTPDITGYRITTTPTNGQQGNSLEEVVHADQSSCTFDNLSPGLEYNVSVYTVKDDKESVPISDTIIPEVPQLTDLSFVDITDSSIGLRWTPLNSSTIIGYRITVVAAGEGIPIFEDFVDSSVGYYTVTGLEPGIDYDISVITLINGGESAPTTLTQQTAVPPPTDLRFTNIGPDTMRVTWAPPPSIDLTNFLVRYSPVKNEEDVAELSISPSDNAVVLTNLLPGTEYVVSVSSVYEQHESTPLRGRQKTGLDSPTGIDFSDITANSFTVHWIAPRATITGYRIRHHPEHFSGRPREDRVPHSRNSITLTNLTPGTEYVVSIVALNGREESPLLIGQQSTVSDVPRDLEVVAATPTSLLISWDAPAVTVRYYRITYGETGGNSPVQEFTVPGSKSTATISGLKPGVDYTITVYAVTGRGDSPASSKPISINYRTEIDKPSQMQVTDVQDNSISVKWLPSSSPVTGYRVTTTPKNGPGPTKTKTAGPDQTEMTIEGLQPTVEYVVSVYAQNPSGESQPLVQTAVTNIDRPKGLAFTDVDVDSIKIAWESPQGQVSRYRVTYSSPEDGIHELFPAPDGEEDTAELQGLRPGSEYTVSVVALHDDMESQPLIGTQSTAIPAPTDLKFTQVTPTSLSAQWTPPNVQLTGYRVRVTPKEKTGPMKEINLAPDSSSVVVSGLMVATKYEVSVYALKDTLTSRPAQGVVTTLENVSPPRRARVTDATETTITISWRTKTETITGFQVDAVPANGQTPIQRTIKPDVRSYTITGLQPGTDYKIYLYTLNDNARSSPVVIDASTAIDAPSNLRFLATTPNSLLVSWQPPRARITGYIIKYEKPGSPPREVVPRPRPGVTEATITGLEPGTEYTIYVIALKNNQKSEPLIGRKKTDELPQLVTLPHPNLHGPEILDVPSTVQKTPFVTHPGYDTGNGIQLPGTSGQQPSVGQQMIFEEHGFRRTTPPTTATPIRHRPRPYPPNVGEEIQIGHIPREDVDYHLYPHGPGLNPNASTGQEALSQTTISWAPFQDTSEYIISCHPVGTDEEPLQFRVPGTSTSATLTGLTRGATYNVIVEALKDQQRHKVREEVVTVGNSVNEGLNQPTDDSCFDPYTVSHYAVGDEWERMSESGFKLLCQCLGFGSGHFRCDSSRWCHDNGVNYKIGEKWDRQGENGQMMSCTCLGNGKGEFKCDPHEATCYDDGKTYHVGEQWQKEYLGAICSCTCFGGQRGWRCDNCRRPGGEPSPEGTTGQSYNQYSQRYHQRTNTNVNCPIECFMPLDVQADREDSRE
Chain of antithrombin (Enzyme Research Labs, South Bend, IN), P01008 (P01008 whole entry, looked up): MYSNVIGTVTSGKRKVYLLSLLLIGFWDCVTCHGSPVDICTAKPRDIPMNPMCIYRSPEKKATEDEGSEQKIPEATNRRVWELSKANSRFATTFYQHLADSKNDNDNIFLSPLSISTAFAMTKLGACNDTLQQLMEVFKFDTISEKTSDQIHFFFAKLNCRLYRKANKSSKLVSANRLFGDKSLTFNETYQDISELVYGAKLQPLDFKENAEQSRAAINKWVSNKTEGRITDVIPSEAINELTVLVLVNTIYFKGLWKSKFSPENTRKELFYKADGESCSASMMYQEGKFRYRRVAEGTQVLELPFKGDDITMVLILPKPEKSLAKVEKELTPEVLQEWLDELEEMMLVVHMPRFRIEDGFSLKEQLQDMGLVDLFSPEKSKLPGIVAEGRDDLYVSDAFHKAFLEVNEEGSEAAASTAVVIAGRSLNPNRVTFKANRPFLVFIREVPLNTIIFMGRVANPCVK
Chain of α1-antitrypsin (Sigma, St. Louis, MO), P01009 (P01009 whole entry, looked up): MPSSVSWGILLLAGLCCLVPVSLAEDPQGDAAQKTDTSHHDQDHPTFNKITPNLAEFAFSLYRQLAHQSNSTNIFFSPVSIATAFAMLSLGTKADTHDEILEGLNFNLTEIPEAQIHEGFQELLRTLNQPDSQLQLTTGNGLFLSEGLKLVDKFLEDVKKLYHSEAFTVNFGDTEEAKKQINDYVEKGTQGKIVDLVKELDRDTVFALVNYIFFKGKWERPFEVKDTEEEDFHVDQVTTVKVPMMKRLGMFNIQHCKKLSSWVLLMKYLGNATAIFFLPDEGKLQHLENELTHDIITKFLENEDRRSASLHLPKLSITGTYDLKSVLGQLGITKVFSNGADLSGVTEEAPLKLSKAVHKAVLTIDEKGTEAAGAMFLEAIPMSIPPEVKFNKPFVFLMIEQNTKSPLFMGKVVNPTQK

B1: Pseudomonas aeruginosa elastase (Calbiochem EC# 3.4.24.26) (protein)
chain: AEAGGPGGNQKIGKYTYGSDYGPLIVNDRCEMDDGNVITVDMNSSTDDSKTTPFRFACPTNTYKQVNGAYSPLNDAHFFGGVVFKLYRDWFGTSPLTHKLYMKVHYGRSVENAYWDGTAMLFGDGATMFYPLVSLDVAAHEVSHGFTEQNSGLIYRGQSGGMNEAFSDMAGEAAEFYMRGKNDFLIGYDIKKGSGALRYMDQPSRDGRSIDNASQYYNGIDVHHSSGVYNRAFYLLANSPGWDTRKAFEVFVDANRYYWTATSNYNSGACGVIRSAQNRNYSAADVTRAFSTVGVTCPSAL
Proteolysis of substrates [1]: +
Proteolysis of substrates [2]: +
Proteolysis of substrates [3]: +
Proteolysis of substrates [4]: +
fluorescent measurement of casein degradation [5]: elastase was able to act on casein at lower concentrations (range: 0.5 ng to 1 µg/unit of volume)
Proteolysis of substrates [6]: +
Proteolysis of substrates [7]: +
Proteolysis of substrates [8]: +
Proteolysis of substrates [9]: +
Proteolysis of substrates [10]: +
Proteolysis of substrates [11]: -

B2: StcE-His (recombinant his-tagged form of StcE, from pWL107 in BL21(DE3), strain WAM2572) (protein)
chain: ADNNSAIYFNTSQPINDLQGSLAAEVKFAQSQILPAHPKEGDSQPHLTSLRKSLLLVRPVKADDKTPVQVEARDDNNKILGTLTLYPPSSLPDTIYHLDGVPEGGIDFTPHNGTKKIINTVAEVNKLSDASGSSIHSHLTNNALVEIHTANGRWVRDIYLPQGPDLEGKMVRFVSSAGYSSTVFYGDRKVTLSVGNTLLFKYVNGQWFRSGELENNRITYAQHIWSAELPAHWIVPGLNLVIKQGNLSGRLNDIKIGAPGELLLHTIDIGMLTTPRDRFDFAKDKEAHREYFQTIPVSRMIVNNYAPLHLKEVMLPTGELLTDMDPGNGGWHSGTMRQRIGKELVSHGIDNANYGLNSTAGLGENSHPYVVAQLAAHNSRGNYANGIQVHGGSGGGGIVTLDSTLGNEFSHEVGHNYGLGHYVDGFKGSVHRSAENNNSTWGWDGDKKRFIPNFYPSQTNEKSCLNNQCQEPFDGHKFGFDAMAGGSPFSAANRFTMYTPNSSAIIQRFFENKAVFDSRSSTGFSKWNADTQEMEPYEHTIDRAEQITASVNELSESKMAELMAEYAVVKVHMWNGNWTRNIYIPTASADNRGSILTINHEAGYNSYLFINGDEKVVSQGYKKSFVSDGQFWKERDVVDTREARKPEQFGVPVTTLVGYYDPEGTLSSYIYPAMYGAYGFTYSDDSQNLSDNDCQLQVDTKEGQLRFRLANHRANNTVMNKFHINVPTESQPTQATLVCNNKILDTKSLTPAPEGLTYTVNGQALPAKENEGCIVSVNSGKRYCLPVGQRSGYSLPDWIVGQEVYVDSGAKAKVLLSDWDNLSYNRIGEFVGNVNPADMKKVKAWNGQYLDFSKPRSMRVVYKHHHHHH
Proteolysis of substrates [1]: -
Proteolysis of substrates [2]: -
Proteolysis of substrates [3]: -
Proteolysis of substrates [12]: -
Proteolysis of substrates [4]: +
fluorescent measurement of casein degradation [5]: StcE-His was unable to degrade casein even at high protein concentrations (up to 6.4 µg/unit of volume)
Proteolysis of substrates [6]: -
Proteolysis of substrates [7]: -
Proteolysis of substrates [8]: -
Proteolysis of substrates [13]: -
Proteolysis of substrates [9]: -
Proteolysis of substrates [10]: -
Proteolysis of substrates [11]: -

B3: StcE′-His (lacking the StcE N-terminal signal sequence, 6xHis tag at the C-terminus; from pTB4, strain WAM2751) (protein)
chain: B2 chain
cleavage of 35S-labeled recombinant protein (immunoprecipitation, SDS-PAGE) [14]: C-serp(98) was unaffected by the protease
cleavage of 35S-labeled recombinant protein (immunoprecipitation, SDS-PAGE) [15]: only hC1-INH was cleaved by StcE′-His
